From US7094575B2 (priority 1999, dated 2006) come the findings set out here.

In data set [1] the target is daboiatoxin, the major PLA2 toxin of Daboia russelli siamensis venom (Daboia siamensis, UniProt Q7T2R1+Q7T3T5). The format is biochemical.
The target of data set [2] is Daboiatoxin PLA2 (Daboia siamensis, UniProt Q7T2R1+Q7T3T5). The data set is classed as in vivo, mice. Particulars: mouse, in vivo.
Data set [3] concerns Daboia russelli pulchella (Sri Lanka) venom. The format is in vivo, mice.
Data set [4] has as its system Daboia russelli russelli (India) venom. The format is in vivo, mice.
Data set [5] relates to PLA2 activity of Daboia russelli siamensis venom. The format is biochemical.
Data set [6] deals with Daboia russelli siamensis venom. The data set is classed as in vivo, mice. The following applies: Table 6; for Paw oedema: 45 min, n = 3.
Data set [7] concerns the target T1, Daboiatoxin PLA2 (Daboia siamensis, UniProt Q7T2R1+Q7T3T5).
T1 sequence (Q7T2R1 whole entry, looked up): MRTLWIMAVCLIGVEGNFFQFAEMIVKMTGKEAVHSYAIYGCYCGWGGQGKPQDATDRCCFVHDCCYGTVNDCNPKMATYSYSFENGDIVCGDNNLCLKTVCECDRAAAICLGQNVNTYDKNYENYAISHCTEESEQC
T1 sequence (Q7T3T5 whole entry, looked up): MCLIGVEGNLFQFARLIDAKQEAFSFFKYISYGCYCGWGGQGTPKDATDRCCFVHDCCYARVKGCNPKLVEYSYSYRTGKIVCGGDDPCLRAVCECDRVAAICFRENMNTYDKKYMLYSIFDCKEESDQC
The data set is classed as in vivo, mice.

Assay in data set [8]: not given
This is another data set of the same source.

For data set [9], the system named is Daboia russelli siamensis venom. The data set is classed as in vivo, mice.
The test system of data set [10] is Daboia russelli siamensis (Thailand) venom. The format is in vivo, mice.

Where “and” joins values, the source holds several entries; their conditions need not be identical. Equal values may be shown once. Read-outs that look alike come from different tables or passages of the source. Where no end group is shown, it is not given here.

In the case of PGLPLSLQNG [P-0029], where the note is “mouse, in vivo”, the “Oedema (mg), inhibitor alone” value is reported as 13 ± 2 mg. In data set [1], the “IC50” value amounted to 40 µg and the “PLA2 inhibition (%)” value was 90%.
Turning to PLPGLPLSLQNGLYCPGAFGIF [PP-0036], the “Anti-Inflammatory Activity” value in data set [2] is given as “Negative”. In addition, in data set [1], the “PLA2-inhibitory activity (in words)” value is listed as “devoid of PLA2-inhibitory activity” and the “PLA2 inhibition (%)” value was −3.0%.
In the case of PLPGLPLSKP [P-0009], in [1], the “IC50” value amounted to 125 µg and the “PLA2 inhibition (%)” value amounted to 80%.
For the molecule PLPGLPLSLQNGLYK [PP-0008], the “Anti-Inflammatory Activity” value in data set [2] was “Negative”. In data set [1], the “PLA2-inhibitory activity (in words)” value is reported as “insignificant” and the “PLA2 inhibition (%)” value came out at 18%.
Turning to LSLQNGLYK [PP-0006], in data set [1], the “IC50” value came out at 250 µg and the “PLA2 inhibition (%)” value came out at 70%.
Regarding GAFGIFTEDSTEK [PP-0005], in data set [2], the “Anti-Inflammatory Activity” value was “Negative”. Further, in [1], the “PLA2-inhibitory activity (in words)” value was “fails to inhibit PLA2 activity” and the “PLA2 inhibition (%)” value is on record as −13%.

B1: PAF: 140-kDa hexameric glycoprotein of six 23-kDa subunits purified from Python reticulatus serum; SEQ ID NO: 6 (protein, listed as Python reticulatus)
chain: MKSLQTICLLFIFIARGTSDKCEICHGFGDDCDGYQEECPSPEDRCGKILIDIALAPVSFRATHKNCFSSSICKLGRVDIHVWDGVYIRGRTNCCDNDQCEDQPLPGLPLSLQNGLYCPGAFGIFTEDSTEHEVKCRGTETMCLDLVGYRQESYAGNITYNIKGCVSSCPLVTLSERGHEGRKNDLKKVECREALKPASSD
As for B1, the “Protection against lethality, Survival/total” value is listed as 3/3 in data set [3] (24 hr), 3/3 in [4] (24 hr), 4/4 in data set [9] (24 hr) and 3/3 in data set [10] (24 hr). For the same molecule, the “% neutralisation” value was 100% in data set [3] (mouse, in vivo, ip); 100% in [4] (mouse, in vivo, ip); 100% in [9] (mouse, in vivo, ip); 100% in data set [10] (mouse, in vivo, ip). For the same molecule, in data set [5], the “Inhibitory activity (IC50)” value turned out to be 0.2 mg. For the same molecule, the “% Inhibition (mean)” value in [6] (venom 5 μg + 25 μg inhibitor) is 7.8%; in data set [6] (venom 5 μg + 50 μg inhibitor), 46.5%; in data set [6] (venom 5 μg + 100 μg inhibitor), 74.6%; in [7] (mouse, in vivo), 89.4% and 92.1%. Moreover, the “Paw oedema” value in data set [6] (venom 5 μg + 25 μg inhibitor subplantar, PAF is recombinant) is 107 ± 20 mg; in data set [6] (venom 5 μg + 50 μg inhibitor), 62 ± 2.2 mg; in data set [6] (venom 5 μg + 100 μg inhibitor) it was 29 ± 0.8 mg; in data set [7] (45 min, n = 3), 18 ± 6.0 mg and 13 ± 0.4 mg. For the same molecule, under “mouse, in vivo”, the “% Inhibition (mean) column, inhibitor alone” value is on record as “n.s”. The “Paw oedema (mg), inhibitor alone” value (n = 3) is 10 ± 5.2 mg. Also, the “Survival/total, PAF alone” value in [8] (24 hr) is listed as 3/3. For the same molecule, the “toxicity of native PAF” value in [8] (mice) is given as “non-toxic”.
